Assay in all cases: cell_activity
The subject of data set [1] is ExoS54-FLAG-TALEN2 (gfp/Venus right TALEN) (Artificial). As to conditions: paired with TALEN1; T3SS protein injection into EB5 mESC, MOI 100, 3 h; about 30% at MOI 400; indels confirmed by sequencing.
Data set [2] deals with ExoS54-FLAG-HPRT1-T2 (HPRT1 right TALEN) (Artificial). As to conditions: paired with HPRT1-T1; human iPSC, MOI 100, 3 h, after 6TG selection, no template; overall mutation efficiency about 1%.
Data set [3] deals with ExoS54-FLAG-HPRT1-T1 (HPRT1 left TALEN) (Artificial). The note with it: paired with HPRT1-T2; human iPSC, MOI 100, 3 h, after 6TG selection, no template; overall mutation efficiency about 1%.
In data set [4] the test system is ExoS54-FLAG-TALEN1 (gfp/Venus left TALEN) (Artificial). The note with it: paired with TALEN2; T3SS protein injection into EB5 mESC, MOI 100, 3 h; about 30% at MOI 400; indels confirmed by sequencing.

As to “CTGGACGGCGACGTAAA (double strand) [gfp TALEN right half-site (top strand)]”, the activity (% GFP-negative cells) in data set [1] came to 20. “GATGGGAGGCCATCACATTGT (double strand) [HPRT1 exon 2 TALEN right half-site (top strand)]” gave an activity (% DNA lost XhoI site) in data set [2] of 20. Regarding “GTAGGACTGAACGTCTTGCTC (double strand) [HPRT1 exon 2 TALEN left half-site]”, the activity (% DNA lost XhoI site) in data set [3] came out at 20.

“TTCACCGGGGTGGTGCC (double strand) [gfp TALEN left half-site]” registered an activity (% GFP-negative cells) in data set [4] of 20.

Source of the values: patent US20180119119.
